Data from PMC7340262, “Structural insights into the regulation of SigB activity by RsbV and RsbW” (IUCrJ, 2020).

T1: SigB (residues 1–262) (Bacillus subtilis strain 168, UniProt P06574 1-262)
T1 construct: RNA polymerase sigma-B factor SigB, Bacillus subtilis strain 168, residues 1-262; also called alternative sigma factor SigB; source: E. coli BL21 Star (DE3), co-expressed with RsbW (modified pETDuet-1), co-purified as RsbW–SigB complex
T1 sequence (looked up): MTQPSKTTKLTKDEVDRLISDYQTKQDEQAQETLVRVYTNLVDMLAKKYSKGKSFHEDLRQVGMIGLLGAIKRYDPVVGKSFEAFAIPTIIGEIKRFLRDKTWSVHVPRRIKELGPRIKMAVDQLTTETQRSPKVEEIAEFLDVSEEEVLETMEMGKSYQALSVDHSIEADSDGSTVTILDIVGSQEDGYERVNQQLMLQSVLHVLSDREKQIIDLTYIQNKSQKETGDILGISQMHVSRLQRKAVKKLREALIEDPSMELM

B1: RsbW (residues 1–160), co-expressed with RsbV (natural protein, Bacillus subtilis strain 168, UniProt P17904 1-160, looked up)
chain: MKNNADYIEMKVPAQPEYVGIIRLTLSGVASRMGYTYDEIEDLKIAVSEACTNAVQHAYKEDKNGEVSIRFGVFEDRLEVIVADEGDSFDFDQKQQDLGPYTPSHTVDQLSEGGLGLYLMETLMDEVRVQNHSGVTVAMTKYLNGERVDHDTTIKNYETN
notes: Serine-protein kinase / anti-sigma-B factor RsbW, Bacillus subtilis strain 168, residues 1-160 (called full-length); Four copies stand in the RsbV–RsbW octamer; also called full-length RsbW; anti-sigma factor RsbW

Tests used:
[1] = target: the molecule itself; experiment: AF4-MALS; co-purified complexes or RsbW alone in phosphate-buffered saline pH 7.4; 50 µl injected
[2] = target: T1, SigB (residues 1–262); experiment: as above; settings: both partners purified
[3] = target: B1; experiment: as above; settings: both partners purified
[4] = target: the molecule itself; experiment: crystal structure; RsbV_(1–104)–RsbW_(5–145) complex; monoclinic crystals (25% PEG 1500, 100 mM SPG pH 8.5, 3.4 Å) and hexagonal crystals (20% PEG 3350, 200 mM potassium formate, excess ADP, 3.1 Å), 20°C

Binder | stoichiometry N [1] | further results
RsbW (residues 1–160), expressed alone (natural protein, Bacillus subtilis strain 168, UniProt P17904 1-160, looked up, Anti-sigma-B factor RsbW, Bacillus subtilis strain 168, residues 1-160; 'RsbV and RsbW alone were similarly expressed and purified following the same procedures'; also called RsbW alone; source: E. coli BL21 Star (DE3), modified pET-28b, purified (HisTrap, TEV cleavage, Superdex 75 SEC); not shown: His6, N-terminal, cleaved; thioredoxin, N-terminal, cleaved) MKNNADYIEMKVPAQPEYVGIIRLTLSGVASRMGYTYDEIEDLKIAVSEACTNAVQHAYKEDKNGEVSIRFGVFEDRLEVIVADEGDSFDFDQKQQDLGPYTPSHTVDQLSEGGLGLYLMETLMDEVRVQNHSGVTVAMTKYLNGERVDHDTTIKNYETN | 4 | –
B1 | 4 | –
RsbW (residues 1–160), co-expressed with SigB (natural protein, Bacillus subtilis strain 168, UniProt P17904 1-160, looked up, Anti-sigma-B factor RsbW, Bacillus subtilis strain 168, residues 1-160; source: E. coli BL21 Star (DE3), co-expressed with SigB (modified pETDuet-1), co-purified as RsbW–SigB complex) MKNNADYIEMKVPAQPEYVGIIRLTLSGVASRMGYTYDEIEDLKIAVSEACTNAVQHAYKEDKNGEVSIRFGVFEDRLEVIVADEGDSFDFDQKQQDLGPYTPSHTVDQLSEGGLGLYLMETLMDEVRVQNHSGVTVAMTKYLNGERVDHDTTIKNYETN | 4 | stoichiometry N [2]: 2 RsbW per SigB
RsbV (residues 1–109) (natural protein, Bacillus subtilis strain 168, UniProt P17903 1-109, looked up, Anti-anti-sigma-B factor RsbV, Bacillus subtilis strain 168, residues 1-109 (called full-length); Tag removed with TEV protease; also called full-length RsbV; anti-anti-sigma factor RsbV; source: E. coli BL21 Star (DE3); co-expressed with RsbW (modified pETDuet-1) or expressed alone (modified pET-28b); purified (HisTrap, TEV cleavage, SEC); not shown: His6, N-terminal, cleaved; thioredoxin, …) MNINVDVKQNENDIQVNIAGEIDVYSAPVLREKLVPLAEQGADLRICLKDVSYMDSTGLGVFVGTFKMVKKQGGSLKLENLSERLIRLFDITGLKDIIDISAKSEGGVQ | – | stoichiometry N [3]: 1 RsbV per RsbW
RsbW_(5–145) (residues 5–145) (domain or fragment, Bacillus subtilis strain 168, UniProt P17904 5-145, looked up, Residues 59–64 and 85–113 (monoclinic) or 86–109 (hexagonal) are not visible in the crystal structures; also called truncated RsbW) ADYIEMKVPAQPEYVGIIRLTLSGVASRMGYTYDEIEDLKIAVSEACTNAVQHAYKEDKNGEVSIRFGVFEDRLEVIVADEGDSFDFDQKQQDLGPYTPSHTVDQLSEGGLGLYLMETLMDEVRVQNHSGVTVAMTKYLNG | – | stoichiometry N [4]: 4
